Patent US20100015126A1, “Methods of Binding of Cross-Beta Structures By Chaperones” (priority 2006, published 2010)

Target: T1, BiP-Sepharose (Homo sapiens, UniProt P11021)
T1 construct: The human BiP gene except the signal peptide encoding region was obtained from Geneart (Germany); linker […]; made in house; host or cells: HEK 293E cells, transient transfection, PABC674 vector; secreted into the medium
Experiment: BiP-Sepharose extraction of proteins from patient plasma, serum, synovial fluid and mass-spectrometric identification
Format: binding
Description: BiP was coated on CNBr-Sepharose (GE-Healthcare, Amersham Biosciences). Immobilization of BiP was performed essentially as described elsewhere in this application for NHS-Sepharose. CNBr-matrix was dissolved at 200 mg/ml in 1 mM HCl and treated the same as the NHS-matrix, except for an additional 5 minutes activation step in 1 mM HCl on a roller device before washing in this buffer. BiP was diluted in immobilization buffer (50 mM NaCl and 40 mM NaHCO3) to a concentration of 820 μg/ml. A total volume of 2 ml BiP solution (1640 μg BiP) was incubated with 360 mg beads. Negative control matrix was exposed to immobilization buffer, only. After overnight immobilization matrix was blocked with Tris and washed.
Six samples were incubated with the BiP-Sepharose, IgIV-Sepharose and the control-Sepharose: Normal pooled plasma, plasma of a patient I or of a patient II, with AL amyloidosis, serum of a patient III with RA (Rheumatoid Factor (RF) titer 682), control serum and synovial fluid of a patient IV with RA (RF titer 23). All samples were diluted 20× in HBS and applied to 200 μl beads in two volumes of 500 μl. One volume was incubated for 4 h at RT and supernatant was discarded after centrifugation (2 minutes at 1400 rpm). Subsequently, the second volume was applied to the same matrix and incubated overnight on a roller device at 4° C. […] To collect the eluates, the matrices were centrifuged and the two eluates were pooled for each sample.
Protein digests were desalted as described (Rappsilber et al., 2003), vacuum dried and dissolved in 2.5% formic acid.
For analysis of peptide mixtures, an Agilent 1100 HPLC system (Agilent Technologies) connected to a Thermo Finnigan LTQ-MS (Thermo Electron, Bremen, Germany) was used. Protein digests were injected on a trap column (Reprosil C18 RP (Dr Maisch, Germany), 20 mm×100 μm I.D.) at 5 μl/minute. Subsequently, the peptides were transferred with a split-reduced flow rate of 100 nL/minute solvent A (0.1 M acetic acid) on the analytical column (Reprosil C18 RP, 20 cm×50 μm I.D.). […] The column effluent was directly introduced into the ESI source of the mass spectrometer via a butt-connected nano-ESI emitter (New Objectives, Woburn, Mass.). The mass spectrometer was operated in the positive ion mode and parent ions were selected for fragmentation in data-dependent mode.
After mass spectrometric measurements, peak lists were generated using BioWorks software (Thermo Electron, Bremen, Germany). Protein identification was performed using Mascot software (www.matrixscience.com) by searching the IPIhuman database (version 3.24, downloaded from ftp://ftp.ebi.ac.uk/pub/databases/IPI/current) using the following settings: fully tryptic peptides, peptide tolerance 0.8 Da, MS/MS tolerance 0.9 Da, 1 missed cleavage allowed, carbamidomethyl (Cys) and oxidation (Met) as fixed and variable modification, respectively. The Scaffold software package (www.proteomesoftware.com) was used to parse the data and to filter peptides at a confidence level of 95%, allowing only protein identification with at least 2 peptides identified.

[1] = Sample B3: eluate of BiP-Sepharose contacted with AL amyloidosis patient II plasma
[2] = Sample B4: eluate of BiP-Sepharose contacted with RA patient III serum

T1 sequence (P11021 19-654): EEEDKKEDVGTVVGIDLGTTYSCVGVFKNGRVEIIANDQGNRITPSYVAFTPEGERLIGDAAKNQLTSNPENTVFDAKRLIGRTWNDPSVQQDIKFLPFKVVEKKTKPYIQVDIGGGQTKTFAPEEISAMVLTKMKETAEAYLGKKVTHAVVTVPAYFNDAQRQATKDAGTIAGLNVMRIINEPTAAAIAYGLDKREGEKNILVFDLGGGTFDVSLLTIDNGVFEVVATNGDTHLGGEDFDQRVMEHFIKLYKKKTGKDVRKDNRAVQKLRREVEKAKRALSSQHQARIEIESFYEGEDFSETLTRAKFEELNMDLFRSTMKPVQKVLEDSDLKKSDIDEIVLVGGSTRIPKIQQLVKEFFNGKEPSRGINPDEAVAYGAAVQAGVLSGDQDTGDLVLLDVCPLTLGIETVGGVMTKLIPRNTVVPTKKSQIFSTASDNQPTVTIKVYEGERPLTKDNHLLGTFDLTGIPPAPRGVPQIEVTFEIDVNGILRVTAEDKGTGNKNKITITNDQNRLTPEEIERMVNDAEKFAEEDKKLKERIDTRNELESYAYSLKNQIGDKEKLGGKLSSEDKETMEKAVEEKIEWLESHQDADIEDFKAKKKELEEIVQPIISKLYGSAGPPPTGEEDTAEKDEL

| Molecule | # of peptides in sample A# (Sample B2: eluate of BiP-Sepharose contacted with AL amyloidosis patient I plasma) | # of peptides in sample A# [1] | # of peptides in sample A# [2] |
| --- | --- | --- | --- |
| Immunoglobulin heavy constant gamma 3 (G3m marker)/Ig gamma-3 chain C region (Heavy chain disease protein, HDC) (protein) ASTKGPSVFPLAPCSRSTSGGTAALGCLVKDYFPEPVTVSWNSGALTSGVHTFPAVLQSSGLYSLSSVVTVPSSSLGTQTYTCNVNHKPSNTKVDKRVELKTPLGDTTHTCPRCPEPKSCDTPPPCPRCPEPKSCDTPPPCPRCPEPKSCDTPPPCPRCPAPELLGGPSVFLFPPKPKDTLMISRTPEVTCVVVDVSHEDPEVQFKWYVDGVEVHNAKTKPREEQYNSTFRVVSVLTVLHQDWLNGKEYKCKVSNKALPAPIEKTISKTKGQPREPQVYTLPPSREEMTKNQVSLTCLVKGFYPSDIAVEWESSGQPENNYNTTPPMLDSDGSFFLYSKLTVDKSRWQQGNIFSCSVMHEALHNRFTQKSLSLSPGK | 2 | 2 |  |
| Dapper homolog 1 (hDPR1) (Heptacellular carcinoma novel gene 3)/Dapper, antagonist of beta-catenin, homolog 1 (Xenopus laevis) (protein) MKPSPAGTAKELEPPAPARGEQRTAEPEGRWREKGEADTERQRTRERQEATLAGLAELEYLRQRQELLVRGALRGAGGAGAAAPRAGELLGEAAQRSRLEEKFLEENILLLRKQLNCLRRRDAGLLNQLQELDKQISDLRLDVEKTSEEHLETDSRPSSGFYELSDGASGSLSNSSNSVFSECLSSCHSSTCFCSPLEATLSLSDGCPKSADLIGLLEYKEGHCEDQASGAVCRSLSTPQFNSLDVIADVNPKYQCDLVSKNGNDVYRYPSPLHAVAVQSPMFLLCLTGNPLREEDRLGNHASDICGGSELDAVKTDSSLPSPSSLWSASHPSSSKKMDGYILSLVQKKTHPVRTNKPRTSVNADPTKGLLRNGSVCVRAPGGVSQGNSVNLKNSKQACLPSGGIPSLNNGTFSPPKQWSKESKAEQAESKRVPLPEGCPSGAASDLQSKHLPKTAKPASQEHARCSAIGTGESPKESAQLSGASPKESPSRGPAPPQENKVVQPLKKMSQKNSLQGVPPATPPLLSTAFPVEERPALDFKSEGSSQSLEEAHLVKAQFIPGQQPSVRLHRGHRNMGVVKNSSLKHRGPALQGLENGLPTVREKTRAGSKKCRFPDDLDTNKKLKKASSKGRKSGGGPEAGVPGRPAGGGHRAGSRAHGHGREAVVAKPKHKRTDYRRWKSSAEISYEEALRRARRGRRENVGLYPAPVPLPYASPYAYVASDSEYSAECESLFHSTVVDTSEDEQSNYTTNCFGDSESSVSEGEFVGESTTTSDSEESGGLIWSQFVQTLPIQTVTAPDLHNHPAKTFVKIKASHNLKKKILRFRSGSLKLMTTV |  |  | 2 |
| Ig lambda chain V-III region SH (protein) SELTQDPAVSVALGQTVRITCQGDSLRSYYASWYQQKPGQAPVLVIYGKNNRPSGIPDRFSGSSSGNTASLTITGAQAEDEADYYCNSRDSS |  |  | 2 |
| CD5 antigen-like precursor (SP-alpha, CT-2, IgM-associated peptide)/CD5 molecule-like (protein) SPSGVRLVGGLHRCEGRVEVEQKGQWGTVCDDGWDIKDVAVLCRELGCGAASGTPSGILYEPPAEKEQKVLIQSVSCTGTEDTLAQCEQEEVYDCSHDEDAGASCENPESSFSPVPEGVRLADGPGHCKGRVEVKHQNQWYTVCQTGWSLRAAKVVCRQLGCGRAVLTQKRCNKHAYGRKPIWLSQMSCSGREATLQDCPSGPWGKNTCNHDEDTWVECEDPFDLRLVGGDNLCSGRLEVLHKGVWGSVCDDNWGEKEDQVVCKQLGCGKSLSPSFRDRKCYGPGVGRIWLDNVRCSGEEQSLEQCQHRFWGFHDCTHQEDVAVICSG |  |  | 1 |
| V1-3 protein (Fragment) (protein) QSALTQPRSVSGSPGQSVTISCTGTSSDVGGYNYVSWYQQHPGKAPKLMIYDVSKRPSGVPDRFSGSKSGNTASLTISGLQAEDEADYYCCSYAGSYTFH |  | 2 | 1 |
| Immunoglobulin heavy constant mu/Full-length cDNA clone CS0DD006YL02 of Neuroblastoma of Homo sapiens (protein, UniProt P01871 1-474, looked up) Immunoglobulin heavy constant …: GSASAPTLFPLVSCENSPSDTSSVAVGCLAQDFLPDSITFSWKYKNNSDISSTRGFPSVLRGGKYAATSQVLLPSKDVMQGTDEHVVCKVQHPNGNKEKNVPLPVIAELPPKVSVFVPPRDGFFGNPRKSKLICQATGFSPRQIQVSWLREGKQVGSGVTTDQVQAEAKESGPTTYKVTSTLTIKESDWLGQSMFTCRVDHRGLTFQQNASSMCVPDQDTAIRVFAIPPSFASIFLTKSTKLTCLVTDLTTYDSVTISWTRQNGEAVKTHTNISESHPNATFSAVGEASICEDDWNSGERFTCTVTHTDLPSPLKQTISRPKGVALHRPDVYLLPPAREQLNLRESATITCLVTGFSPADVFVQWMQRGQPLSPEKYVTSAPMPEPQAPGRYFAHSILTVSEEEWNTGETYTCVVAHEALPNRVTERTVDKSTEGEVSADEEGFENLWATASTFIVLFLLSLFYSTTVTLFKVK |  | 4 | 10 |
| CDNA FLJ90170 fis, clone MAMMA1000370, highly similar to Ig alpha-1 chain C region/Immunoglobulin heavy constant alpha 1 (protein, UniProt P01876 1-398, looked up) Immunoglobulin heavy constant …: ASPTSPKVFPLSLCSTQPDGNVVIACLVQGFFPQEPLSVTWSESGQGVTARNFPPSQDASGDLYTTSSQLTLPATQCLAGKSVTCHVKHYTNPSQDVTVPCPVPSTPPTPSPSTPPTPSPSCCHPRLSLHRPALEDLLLGSEANLTCTLTGLRDASGVTFTWTPSSGKSAVQGPPERDLCGCYSVSSVLPGCAEPWNHGKTFTCTAAYPESKTPLTATLSKSGNTFRPEVHLLPPPSEELALNELVTLTCLARGFSPKDVLVRWLQGSQELPREKYLTWASRQEPSQGTTTFAVTSILRVAAEDWKKGDTFSCMVGHEALPLAFTQKTIDRLADWQMPPPYVVLDLPQETLEEETPGANLWPTTITFLTLFLLSLFYSTALTVTSVRGPSGNREGPQY |  | 2 | 17 |
| Hypothetical protein DKFZp686I04196 (Fragment)/Immunoglobulin heavy constant gamma 2 (G2m marker)/Ig gamma-2 chain C region (protein) ASTKGPSVFPLAPCSRSTSESTAALGCLVKDYFPEPVTVSWNSGALTSGVHTFPAVLQSSGLYSLSSVVTVPSSNFGTQTYTCNVDHKPSNTKVDKTVERKCCVECPPCPAPPVAGPSVFLFPPKPKDTLMISRTPEVTCVVVDVSHEDPEVQFNWYVDGVEVHNAKTKPREEQFNSTFRVVSVLTVVHQDWLNGKEYKCKVSNKGLPAPIEKTISKTKGQPREPQVYTLPPSREEMTKNQVSLTCLVKGFYPSDISVEWESNGQPENNYKTTPPMLDSDGSFFLYSKLTVDKSRWQQGNVFSCSVMHEALHNHYTQKSLSLSPGK |  |  | 14 |
| Complement factor H-related protein 3 precursor/Complement factor H-related 3 (FHR-3, H factor-like protein 3, DOWN16)/Complement factor H-related 3, isoform CRA_c (protein) QVKPCDFPDIKHGGLFHENMRRPYFPVAVGKYYSYYCDEHFETPSGSYWDYIHCTQNGWSPAVPCLRKCYFPYLENGYNQNYGRKFVQGNSTEVACHPGYGLPKAQTTVTCTEKGWSPTPRCIRVRTCSKSDIEIENGFISESSSIYILNKEIQYKCKPGYATADGNSSGSITCLQNGWSAQPICINSSEKCGPPPPISNGDTTSFLLKVYVPQSRVEYQCQPYYELQGSNYVTCSNGEWSEPPRCIHPCIITEENMNKNNIKLKGRSDRKYYAKTGDTIEFMCKLGYNANTSILSFQAVCREGIVEYPRCE |  | 1 |  |
